In US20250304919A1 (MASSEY VENTURES, published 2025):

Biological target: T1, human fibronectin (human, UniProt P02751 32-2477)
T1 construct: also called Fn; analyte
Test: lateral flow dipstick; reference LOD of 6.4 ng/mL is cited from the literature

T1 sequence (P02751 32-2477 limits assumed): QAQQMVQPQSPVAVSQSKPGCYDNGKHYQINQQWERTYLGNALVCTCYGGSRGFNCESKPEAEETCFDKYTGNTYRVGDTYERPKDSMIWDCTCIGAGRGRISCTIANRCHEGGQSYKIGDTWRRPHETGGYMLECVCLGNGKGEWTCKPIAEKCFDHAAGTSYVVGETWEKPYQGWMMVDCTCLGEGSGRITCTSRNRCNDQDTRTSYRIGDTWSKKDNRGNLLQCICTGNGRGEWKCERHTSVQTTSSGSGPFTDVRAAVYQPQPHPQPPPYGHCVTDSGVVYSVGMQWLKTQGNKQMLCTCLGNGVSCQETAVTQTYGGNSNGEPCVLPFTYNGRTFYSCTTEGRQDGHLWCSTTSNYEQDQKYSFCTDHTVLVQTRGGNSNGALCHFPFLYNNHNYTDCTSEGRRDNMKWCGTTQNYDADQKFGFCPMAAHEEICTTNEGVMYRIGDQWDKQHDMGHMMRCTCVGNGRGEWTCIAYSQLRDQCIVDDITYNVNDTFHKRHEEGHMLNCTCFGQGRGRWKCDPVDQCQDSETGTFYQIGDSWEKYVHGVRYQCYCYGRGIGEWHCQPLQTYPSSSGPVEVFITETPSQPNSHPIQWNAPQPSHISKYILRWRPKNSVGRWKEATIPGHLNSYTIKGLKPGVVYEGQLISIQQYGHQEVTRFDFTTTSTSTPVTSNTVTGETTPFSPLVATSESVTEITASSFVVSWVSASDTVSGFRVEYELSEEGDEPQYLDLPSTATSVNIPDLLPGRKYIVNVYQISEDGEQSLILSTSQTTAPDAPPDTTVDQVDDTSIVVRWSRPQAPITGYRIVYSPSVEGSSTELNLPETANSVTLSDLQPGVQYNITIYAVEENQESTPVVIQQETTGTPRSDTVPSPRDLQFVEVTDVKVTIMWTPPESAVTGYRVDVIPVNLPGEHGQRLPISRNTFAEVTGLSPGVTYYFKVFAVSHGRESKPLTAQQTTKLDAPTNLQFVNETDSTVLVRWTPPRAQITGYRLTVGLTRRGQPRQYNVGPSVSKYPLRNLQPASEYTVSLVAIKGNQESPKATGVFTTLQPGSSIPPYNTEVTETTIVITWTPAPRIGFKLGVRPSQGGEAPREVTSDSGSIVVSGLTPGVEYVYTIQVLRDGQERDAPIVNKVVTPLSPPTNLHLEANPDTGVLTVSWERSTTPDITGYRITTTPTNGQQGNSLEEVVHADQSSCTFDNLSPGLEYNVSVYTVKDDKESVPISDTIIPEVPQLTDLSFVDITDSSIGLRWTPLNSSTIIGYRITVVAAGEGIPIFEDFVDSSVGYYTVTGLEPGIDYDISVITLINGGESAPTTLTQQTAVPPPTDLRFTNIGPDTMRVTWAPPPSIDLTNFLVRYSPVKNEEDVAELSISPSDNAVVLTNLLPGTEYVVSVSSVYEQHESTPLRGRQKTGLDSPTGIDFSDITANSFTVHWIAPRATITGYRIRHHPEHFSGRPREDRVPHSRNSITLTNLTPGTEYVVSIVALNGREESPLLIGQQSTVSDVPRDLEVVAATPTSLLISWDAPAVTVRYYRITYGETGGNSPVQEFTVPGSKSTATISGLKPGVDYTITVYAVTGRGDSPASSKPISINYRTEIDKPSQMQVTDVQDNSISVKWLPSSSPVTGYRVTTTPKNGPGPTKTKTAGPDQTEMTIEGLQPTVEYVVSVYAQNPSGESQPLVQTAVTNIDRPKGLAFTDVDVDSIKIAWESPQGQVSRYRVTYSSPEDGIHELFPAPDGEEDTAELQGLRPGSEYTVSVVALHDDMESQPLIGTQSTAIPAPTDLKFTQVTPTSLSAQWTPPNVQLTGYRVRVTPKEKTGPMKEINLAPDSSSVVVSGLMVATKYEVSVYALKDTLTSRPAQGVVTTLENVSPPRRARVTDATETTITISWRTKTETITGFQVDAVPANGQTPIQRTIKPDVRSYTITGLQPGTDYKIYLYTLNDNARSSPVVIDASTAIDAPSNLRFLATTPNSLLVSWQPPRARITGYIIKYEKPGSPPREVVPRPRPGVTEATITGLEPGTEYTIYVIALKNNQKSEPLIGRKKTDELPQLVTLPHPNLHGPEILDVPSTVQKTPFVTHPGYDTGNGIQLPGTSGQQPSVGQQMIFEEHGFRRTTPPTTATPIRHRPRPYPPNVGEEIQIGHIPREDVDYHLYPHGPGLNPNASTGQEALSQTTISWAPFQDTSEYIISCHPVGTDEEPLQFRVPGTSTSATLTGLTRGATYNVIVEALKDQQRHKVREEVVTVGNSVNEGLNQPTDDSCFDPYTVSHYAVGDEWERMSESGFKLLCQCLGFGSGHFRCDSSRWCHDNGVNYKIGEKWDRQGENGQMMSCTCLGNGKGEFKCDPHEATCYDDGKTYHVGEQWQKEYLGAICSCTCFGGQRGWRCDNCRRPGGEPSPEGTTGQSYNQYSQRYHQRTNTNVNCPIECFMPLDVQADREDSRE

B1: BSFnano711G8FnB2 nanorods displaying the FnB-pIII fusion (fibronectin-binding repeats of Streptococcus pyogenes serum opacity factor Sof22 fused to pIII) (other)
chain: AAQPAGGHGPIVDIVEDTGTGVEGGAQNGVVSTQENKDPIVDITEDTQPGMSGSNDATVVEEDTTPQRPDVLVGGQSDPIDITEDTQPGMSGSNDATVVEEDTVPKRPDILVGGQSDPIDITEDTQPGMSGSNDATVIEEDTKPKRFFHFDNEAAAPGGAETVESCLAKPHTENSFTNVWKDDKTLDRYANYEGCLWNATGVVVCTGDETQCYGTWVPIGLAIPENEGGGSEGGGSEGGGSEGGGTKPPEYGDRPIPGYTYINPLDGTYPPGTEQNPANPNPSLEESQPLNTFMFQNNRFRNRQGALTVYTGTVTQGTDPVKTYYQYTPVSSKAMYDAYWNGKFRDCAFHSGFNEDPFVCEYQGQSSDLPQPPVNAGGGSGGGSGGGSEGGGSEGGGSEGGGSEGGGSGGGSGSGDFDYEKMANANKGAMTENADENALQSDAKGKLDSVATDYGAAIDGFIGDVSGLANGNGATGDFAGSNSQMAQVGDGDNSPLMNNFRQYLPSLPQSVECRPFVFGAGKPYEFSIDCDKINLFRGVFAFLLYVATFMYVFSTFANILRNKES
  fold improvement of LOD against FnB nanorods of the phage system (Sattar et al., 2015): 160 fold
